Measurements published in patent US20050256058.

Columns and labels:
[1] = system: T1, Cbz-Ala-Ala-AAsn-CH═CH-CO-indoline
T1 sequence: AAN

[2] = system: T2, Cbz-Ala-Ala-AAsn-CH═CH-CON(Bzl)2
T2 sequence: AAN

[3] = system: T3, Cbz-Ala-Ala-AAsn-CH═CH-CON(CH3)Bzl
T3 sequence: AAN

[4] = system: T4, Cbz-Ala-Ala-AAsn-CH═CH-CONHCH2CH2Ph
T4 sequence: AAN

[5] = system: T5, Cbz-Ala-Ala-AAsn-CH═CH-COOEt
T5 sequence: AAN

[6] = system: T6, PhPr-Leu-ALys-CH═CH-COOEt
T6 sequence: LK

[7] = system: T7, PhPr-Leu-AOrn-CH═CH-COOEt
T7 sequence: LX

Substance	kobs/[I] [1]	kobs/[I] [2]	kobs/[I] [3]	kobs/[I] [4]	kobs/[I] [5] [M⁻¹ s⁻¹]	kobs/[I] [6] [M⁻¹ s⁻¹]	kobs/[I] [7]
Cathepsin B	NI	NI	NI	NI	1	9	3 M⁻¹ s⁻¹
Gingipain K	1 M⁻¹ s⁻¹	2 M⁻¹ s⁻¹	1 M⁻¹ s⁻¹	NI	6		
Trypsin						17	NI
